Tests used:
[1] = test system: inner membrane of E. coli; type: cell-based, E. coli BL21(DE3)
[2] = test system: inner membrane of E. coli; test: G-GECO1 fluorescence screening of the 3xNNK S2168 pinholin library in microtiter plates (Example 12); details: for Comment: effect on pore formation: measured at the half-maximum time c, N-terminal variants of S21-71; for Slope [d]: sigmoid fit with equation 1 (high d = low slope), G-GECO1; for Slope [d] / Half-maximum time [c]: pCTRL2.T7.100.sRBS library; for Half-maximum time [c]: sigmoid fit with equation 1, G-GECO1, 0.5 mM IPTG
Experimental: Colonies of BL21(DE3) on LB agar from 3. were picked and cultivated in deep well plates with 300 μl of LB medium with the necessary antibiotics overnight for about 16 h at 37° C. and 1300 rpm.
After cultivating individual clones from 4. overnight, the OD600 of the precultures in microtiter plates was adjusted to 0.1, and the samples, 200 μL each, were shaken at 37° C. and 180 rpm for 30 min. Within the framework of the pCTRL2-^3×NNKS^2168 library, 271 clones were thus picked. Within the framework of the pCTRL2.T7.100.sRBS-^3×NNKS^2168 library, 576 clones were picked.
Subsequently, all nanopore variants were then induced with 0.5 mM IPTG, and the fluorescence was measured over another 190 min.
General information: The measurement in the reader is carried out at 30° C. every 3 min. The plate is shaken at 180 rpm between the measurements. The OD600 and the fluorescence (Ex: 485 nm; Em: 525 nm) are measured. The volume in the cavities is 200 μl after addition of all inductors.
For the analysis, the curves were fitted empirically with equation 1 in order to quantitatively determine the half-maximum time c or the slope d, for example.

[3] = test system: E. coli; test: G-GECO1 single-cell fluorescence microscopy in a microfluidic cultivation chamber (Example 11); details: for G-GECO1 fluorescent signal after expression: pCTRL2.T7.100 constructs, 0.5 mM IPTG
Experimental: Colonies of BL21(DE3) on LB agar plates from 1. were picked and cultivated in culture tubes with 2 ml of LB medium and the necessary antibiotics overnight for about 16 h at 37° C. and 180 rpm.
After the cultivation of individual clones from 2. overnight, the cells were transferred to fresh sterile-filtered LB medium, the OD600 of the precultures was 20 adjusted to 0.1, and subsequently grown at 37° C. for a period of 3 h up to an OD600 of 2.
For the cultivation and functional fluorescence-microscopic examination of the cells in a microfluidic cultivation chamber, it was possible to use a previously published microfluidic chip design (see Supplementary FIG. 5 in Nature Communications, 2020, 11, 2746).
After the microfluidic chip was flooded with LB medium, the cells were added and the flow rate through the microfluidic chip was adjusted to 1 μl/min. The cells were left in the microfluidic chip at 37° C. for 3 h, so that they were able to collect and grow accordingly in the cultivation chambers.
Thereafter, the expression of G-GECO1 was induced by a change to LB medium with 25 mM sodium propionate, pH 8.0, at 30° C. for 2 h.
Subsequently, the nanopores were then induced by a change to LB medium with 0.5 mM IPTG, and the development of the fluorescent signal was measured over 16 h.
The fluorescent signal was measured by means of a fluorescence microscope at 30° C. in intervals of 3 minutes. A transmitted-light image and then a fluorescence image (Ex: 488 nm; Em: 504-539 nm) in the form of a Z-stack were taken each time. From the induction of G-GECO1, a flow rate of 4 μl/min was used.
For the analysis, the entire cells from a single cultivation chamber (shown by way of example in FIG. 23) were analyzed with the aid of image analysis software (Fiji ImageJ 1.51; Nature Methods, 2012, 9, 676-82) and the fluorescence in relative fluorescence units (RFU) was plotted against the time (FIG. 24). Based on the curve of the fluorescent signal, detailed statements about the cell integrity or the outflow and the bleaching behavior of the sensor can then be made.

Molecule | Comment: effect on pore formation [2] | Slope [d] [2] | Half-maximum time [c] [2] | also measured
HokB: Pore-forming membrane peptide; forms part of a bacterial efflux or toxin/antitoxin system (MKHNPLVVCLLIICITILTFTLLTRQTLYELRFRDGDKEVAALMACTSR; listed as Escherichia coli) |  |  |  | iGluSNFr fluorescent signal after co-expression (L-Glu outflow) [1]: reduction in the fluorescence
S^107-M3A (protein, Mutant of S107 anti-pinholin of bacteriophage lambda) MKAPEKHDLLAAILAAKEQGIGAILAFAMAYLRGRYNGGAFTKTVIDATMCAIIAWFIRDLLDFAGLSSNLAYITSVFIGYIGTDSIGSLIKRFAAKKAGVEDGRNQ |  |  |  | iGluSNFr fluorescent signal after co-expression (L-Glu outflow) [1]: reduction in the fluorescence
S^21-71 M4A (protein, Mutant of S21-71 anti-pinholin of bacteriophage P21) MKSADKISTGIAYGTSAGSAGYWFLQWLDQVSPSQWAAIGVLGSLVLGFLTYLTNLYFKIREDRRKAARGE |  |  |  | iGluSNFr fluorescent signal after co-expression (L-Glu outflow) [1]: reduction in the fluorescence
Clone P14E5 (protein, Mutant of S21-71 anti-pinholin of bacteriophage P21) MYLEDKISTGIAYGTSAGSAGYWFLQWLDQVSPSQWAAIGVLGSLVLGFLTYLTNLYFKIREDRRKAARGE | Accelerating | 4.908 | 166.1 | 
Clone P3G3 (protein, Mutant of S21-71 anti-pinholin of bacteriophage P21) MWRGDKISTGIAYGTSAGSAGYWFLQWLDQVSPSQWAAIGVLGSLVLGFLTYLTNLYFKIREDRRKAARGE | Inhibitory | 47.62 | 358.7 | 
Clone P7D10 (protein, Mutant of S21-71 anti-pinholin of bacteriophage P21) MAGWDKISTGIAYGTSAGSAGYWFLQWLDQVSPSQWAAIGVLGSLVLGFLTYLTNLYFKIREDRRKAARGE | Inhibitory | 22.49 | 304.1 | 
Clone P14C11 (protein, Mutant of S21-71 anti-pinholin of bacteriophage P21) MNFEDKISTGIAYGTSAGSAGYWFLQWLDQVSPSQWAAIGVLGSLVLGFLTYLTNLYFKIREDRRKAARGE | Accelerating | 6.835 | 172.3 | 
Clone P3E5 (protein, Mutant of S21-71 anti-pinholin of bacteriophage P21) MFQWDKISTGIAYGTSAGSAGYWFLQWLDQVSPSQWAAIGVLGSLVLGFLTYLTNLYFKIREDRRKAARGE | Inhibitory | 28.25 | 483.1 | 
Clone P15D3 (protein, Mutant of S21-71 anti-pinholin of bacteriophage P21) MDWDDKISTGIAYGTSAGSAGYWFLQWLDQVSPSQWAAIGVLGSLVLGFLTYLTNLYFKIREDRRKAARGE | Accelerating | 6.727 | 187.4 | 
T4 holin Wild-type: Wild-type of the T4 pinholin of bacteriophage T4 with highly pronounced pore-forming properties (protein, Bacteriophage T4) MAAPRISFSPSDILFGVLDRLFKDNATGKVLASRVAVVILLFIMAIVWYRGDSFFEYYKQSKYETYSEIIEKERTARFESVALEQLQIVHISSEADFSAVYSFRPKNLNYFVDIIAYEGKLPSTISEKSLGGYPVDKTMDEYTVHLNGRHYYSNLKFAFLPTKKPTPEINYMYSCPYFNLDNIYAGTITMYWYRNDHISNDRLESICAQAARILGRAK |  |  |  | cell division after expression [3]: stop quickly; time window before loss of cellular integrity or outflow of the sensor [3]: 30 min; time within which the fluorescent signal decreases again [3]: ≤ 30 min; G-GECO1 fluorescent signal after expression [3]: increase quickly
S^21-68: Wild-type of the S^21-68 pinholin of bacteriophage P21 with pronounced and defined pore-forming properties (protein, Bacteriophage P21) MDKISTGIAYGTSAGSAGYWFLQWLDQVSPSQWAAIGVLGSLVLGFLTYLTNLYFKIREDRRKAARGE |  |  |  | cell division after expression [3]: stop quickly; cellular integrity measured at the form of the cells [3]: remains intact over a comparatively long period of time; G-GECO1 fluorescent signal after expression [3]: increase quickly

— patent US20230050056A1, “METHOD FOR SCREENING PORE-FORMING MEMBRANE PROTEINS, MEMBRANE TR[…] MOLECULAR SWITCHES” (TECHNISCHE UNIVERSITÄT DARMSTADT, priority 2019, published 2023)
